According to article PMC9258132, “Multi-omics profiling identifies a deregulated FUS-MAP1B axis in ALS/FTD–associated UBQLN2 mutants”:

Target: MBP-FUS-His6 WT (UniProt P35637 1-526)
Assay: EMSA; 5 mM MgCl2, 0.1 mg/ml yeast tRNA; 5 nM RNA, 0-10 uM protein; 20 mM NaPO4 pH 8, 150 mM NaCl, 5% glycerol, 1 mM DTT, 5 mM MgCl2, 0.5 mg/ml BSA, 0.1 mg/ml yeast tRNA, 1 U/ul RNase inhibitor, 20 min RT; 6% native PAGE in 0.5x TBE
Conditions: protein: recombinant; tags: N-terminal MBP, C-terminal His6; hairpin with 3' single-stranded tail

MBP-FUS-His6 WT, sequence (P35637 whole entry): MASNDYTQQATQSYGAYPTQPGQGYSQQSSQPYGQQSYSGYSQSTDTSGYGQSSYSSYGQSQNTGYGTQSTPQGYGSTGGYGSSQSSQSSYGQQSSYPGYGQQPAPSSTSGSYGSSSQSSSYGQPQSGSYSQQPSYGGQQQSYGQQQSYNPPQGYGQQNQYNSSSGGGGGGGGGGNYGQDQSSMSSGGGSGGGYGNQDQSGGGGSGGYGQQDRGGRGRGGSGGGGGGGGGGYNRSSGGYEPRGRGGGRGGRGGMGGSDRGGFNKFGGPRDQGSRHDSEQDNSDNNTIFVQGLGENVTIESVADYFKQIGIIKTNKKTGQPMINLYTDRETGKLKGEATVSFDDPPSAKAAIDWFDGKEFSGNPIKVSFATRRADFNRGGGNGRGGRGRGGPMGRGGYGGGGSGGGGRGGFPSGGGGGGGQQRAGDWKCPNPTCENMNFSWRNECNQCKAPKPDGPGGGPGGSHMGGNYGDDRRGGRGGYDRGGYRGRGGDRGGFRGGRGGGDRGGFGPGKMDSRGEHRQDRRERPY

GGAUCUUUAACUACUCAAGAUACUGAACAUGACAUGGUA (structured_RNA) [SON pre-mRNA stem loop with downstream GGU motif]: binds.
